Measured values published in article PMC3108429.

Tests used:
[1] = molecular target: taxol-stabilized microtubules; test: bead binding to microtubules counted by DIC microscopy
[2] = molecular target: dynamic microtubules grown from GMPCPP-stabilized microtubule seeds (bovine); test: constant-force laser trap bead motility assay

Row | microtubule-bound beads per field (beads per field) [1] | mean attachment lifetime at 1 pN tension [2] [min] | mean attachment lifetime at 5 pN tension [2] [min] | Substance
1 | 18 | – | – | Dsn1-HIS-FLAG kinetochore particles from the dad1-1 mutant strain (from UniProt P40568 1-576; Q12248 1-94) (complex)
2 | 2 | – | – | Dsn1-HIS-FLAG kinetochore particles from the ndc80-1 mutant strain (from UniProt P40568 1-576; P40460 1-691) (complex)
3 | 4 | – | – | Dsn1-HIS-FLAG kinetochore particles from the spc105-15 mutant strain (from UniProt P40568 1-576; P53148 1-917) (complex)
4 | 22 | 21 | 50 | Dsn1-HIS-FLAG kinetochore particles from wild-type cells (from UniProt P40568 1-576) (complex)
